Target: the molecule itself
Experiment: native gel or EMSA; CN-PAGE of mitochondria solubilised in 0.5% digitonin, with or without FCCP, immunoblot with AIFM1 antibodies

B1: AIFM1^TCS/TEV, soluble product of AIFM1^TCS cleaved by IMS-TEV protease (domain or fragment, murine)
chain: GVMGLGLSPEEKQRRAIASATEGGSVPQIRAPSHVPFLLIGGGTAAFAAARSIRARDPGARVLIVSEDPELPYMRPPLSKELWFSDDPNVTKTLQFRQWNGKERSIYFQPPSFYVSAQDLPNIENGGVAVLTGKKVVHLDVRGNMVKLNDGSQITFEKCLIATGGTPRSLSAIDRAGAEVKSRTTLFRKIGDFRALEKISREVKSITVIGGGFLGSELACALGRKSQASGIEVIQLFPEKGNMGKILPQYLSNWTMEKVKREGVKVMPNAIVQSVGVSGGRLLIKLKDGRKVETDHIVTAVGLEPNVELAKTGGLEIDSDFGGFRVNAELQARSNIWVAGDAACFYDIKLGRRRVEHHDHAVVSGRLAGENMTGAAKPYWHQSMFWSDLGPDVGYEAIGLVDSSLPTVGVFAKATAQDNPKSATEQSGTGIRSESETESEASEITIPPSAPAVPQVPVEGEDYGKGVIFYLRDKVVVGIVLWNVFNRMPIARKIIKDGEQHEDLNEVAKLFNIHED
notes: additional glycine residue at the N-terminus, left from the TEV site ENLYFQG after TEV processing; Murine AIFM1 from V98, the residue after the replaced R97, to the end of A.A.1-612; Expected molecular weight ~60 kDa including the Myc tag; The dimer is an estimate from CN-PAGE; also called membrane-dislocated AIFM1 variant; soluble AIFM1^TCS/TEV; not shown: 3x Myc, C-terminal, kept
- stoichiometry N: 2
